Test results: the DeepSol protein solubility set

Assay: soluble on expression in E. coli; label from the status in PepcDB or PDB records

Row | Sequence | soluble on expression in E. coli
1 | MGSDKIHHHHHHAQTKSLHQLQQEFVDLRCGMFIHFNMPTFFNEDWPDPDAAPELFNPVRMDCKQWAKAAKSANMTYGCLTTKHHSGFCIWDTKTTDYSVMSSPFKRDVVKEYADAFRAEGMKVMLYYSILDTHARLRPKCITPQHIEMIKEQLRELLTNYGEITALIIDGWDAPWSRISYDDVPFEDIYRLVKSIQPNCLVMDLNAAKYPAEALFYTDIKSYEQGAGQHISKDTNRLPALSCLPLQQNWFWKESFPTTPVKSPAQMVNDNIIPMGKSYCNFILNVAPNRDGLMDANALKALKEIGKLWKNDGRVATVPEADAPIISSNIAKYQPAEGTWSSDYAIMDFANDDDFGTCWNSNPEVKVPWYSVTFEREKSFNMVVITDRNNDRLQEYRLEYRAGGTWKPLYEGKAPTGLRVKIHRFDTVWGDAVRMTVLNSNGTTSIAEFGVYCERR | not soluble
2 | MGSDKIHHHHHHAQYNKVYADITANMLVDMGFENVIWSEDEKERVYVLENTPWRLQGVGLAHAIDRIQKTGLPEKGKSCRIVVLDNNIPQISLIYTANPDSLKAAPGSYAARSAWDATYDLGDSWDKVKKEYRMNSSLFKVDVVVYPELYLKNLIITQIYQVLFNLSPAIEVSFWNGMKLTAQMVFPIYNDGYGPWAGKIHPGMVTLSQSFRLPYRTFARASIGLFNADRYGVDLAVTHHLKDERFSLEGRIGCTGTGSWQKFEYHYGTHQRVTWSLGGSFYWPKYNTQVSLKAEQYLLGEIGGRIDLIRHFRYCSIGFYAMKAQGALKNGGFRFQVALPPYKYKRKNVRVLPSDNWGMSYNAGNERYYYKGYKASPNDNIMQQNQFNPYFIKSELLNF | not soluble
3 | MGSDKIHHHHHHARIVYLNHCYPSPKVITYTDNDTIKLGNYEIKQTGWEWGDGSLLKEKCPDYAYDQTDDGSEYPFDSVRVGFITLSVTKVKDDTTSLDLTSLAFEMGTNGDQYDMELFFALNPTLEALEIKLNAGEDVSFVIPYIMDEQQVSKKDWSRVDKMKLYMVLQYYPQKIRLCCN | not soluble
4 | MGSDKIHHHHHHASCEDDEVEYAPLAVTRVSTVLDREQGIDQANLAQYIIVQGTGLNAVNSILVNDVQVDLKDAYITSGEITFPIPRVIPGEINNLITLGSGNSTVTAPISVFIPELEVNGMFNEFTPAGDTMKVVGDYFDLYEITTESGQLFFGGKEVKITKSTGNSLSFVLPEDAVMGSKIKLVSPVCGEVTVPGKYMEKGNMLCDFDPFTGWGGSKYVIDGPVPAPYSGYFSRFKINKGDANDWDWNEVTTIAQCAVEYSPEVIADQNKYLLKFEVNTIKPLTKRQIRFYFSQINYDWEPFASGLALNTNGEWKTVSIDLGEMWKGDIPNDGVLQIMGNSWAEDTDICFDNFRIVPKD | not soluble
5 | MGSDKIHHHHHHATAPSPDFNEARFRNDIKILSSDAFEGRAPTTAGEKLTLDYLSTAFKAAGLKGTNNGSFLQSVPMVTYNASENQAIRLGNLHPAYRKDIVLGSRHNNQGVEISNAPLVFVGYGIKAPEYDWDDYAGLDMQGKIAVILVNDPGFAAPESGKFKGKAMTYYGRWSYKFEEASRQGALGAIIIHDTAPASYPWSVIENSWTGPQQDLADASQTDSRVQVEGWMTLDTAKALFDEAGLSLDTLSQEAALTPGNHDLKQSADIAFTNSATFTDSYNLVATLPGTDRADEHILFTAHWDHIGKDDSRDGDKIYNGALDNASGVAGIVEIARQFAALDAMGFKNRRSITFIATTGEEQGLLGSRYYAANPLFPIDKTIAVLNLDSTNVFGRTKDFTIVGKGQSQLEDYLVAAAKAQGREAVAEKNPASGGFFRSDHFSFAKLGVSAAFAGGGSIPLDDATATYKAEMQQKMKGCYHNVCDEYRADWDLSGALQDLALYYDVARTLANNEHRPGYYQKSEFYPLRPAN | not soluble
6 | MGSDKIHHHHHHCQNHVETMSITNNDAYLLQQTALSSSLGYDIVESLTVEVGPRLAGSPKDIIAVNWAMDKLTHLGFDRVYKEPVQVPIWERGEAKAKITFPVEQPLVITALGGSVATPTTGIQAKIIRFDSLEALKQANPEDVKGRIAFIDQKTERHITGEGYGKSVGGRSKGAVAAAEKGAVAIIIRSIGTDHDRMAHTGVMRYQDGVPKIPAAAMSNPDADLVTAMLRRDPNAILELQMSPKNSGFNTSYNVIAEVTGSSKPNEIVLIGAHLDSWDEGTGAIDDGAGVAIVTAAAKHIQDLPIKPARTVRVVLYAAEEIGLMGGKAYAEAHKAELPLHYIAAESDFGAGRIYQIDTKVNEGVFTKVQNILKPMTLNGVTLGSNQASAGPDISMLPAQGVPVASLRQDGRDYFDYHHTPNDTLDKIDPAALAQNVAAYAQFAYLMANSNIVLTPLASEIK | not soluble
7 | MGSDKIHHHHHHDAPLEQALTLAGDNRKELQQVLGHYEGDSLKHKAACFLIENMIGKGTIRYLLRESDSCYIQQEPEPDLTCITADYLIENIDLAFEVWQKYPWCKQLSFREFCRNILPYRLKQEPLDRWRSYYYTRYKMTVDSLARAGATMREIVFFFNSQHGKKYLHDAAKIPGDFSIELIEKLGGGTCDHLALNAVQLMRAVGIPLNLDILPYHGKVNGGHAYNSFTDENGKFFYFSPYEREPERNQWIAPLVQRVCYERQPEPKIGRNRWNTQLVNRLLKEVTDEYYLSDSVRLPVHTSDTVAYIATFNRGAFKVVSQGRVESNSVLHRVLPYGLLYFQMADKKGKLVPTGNPFVMTPDSIHFITPIRQTTVLNGILTYDVKRVLELGYEAYTLYYWKDGWQPVKEVTSKDSRTLDFGEVPVRSLFLVCGNTYMGRMQRPFLLEDGKPVYY | not soluble
8 | MGSDKIHHHHHHENLYFQGMKIALIIENSQAAKNAVVHEALTTVAEPLGHKVFNYGMYTAEDKASLTYVMNGLLAGILLNSGAADFVVTGCGTGMGSMLAANAMPGVFCGLVIDPTDAFLFGQINDGNAISMPYSKGFGWAAELNLQDVYRKLFDGERGLGYPRERAEIMRKNRGILRELKDASCRDMLTVLKTVDQDLLRAAIAGEKFAELFYPNCKDDAIANYLRSLDA | soluble
9 | MGSDKIHHHHHHENLYFQGMQLLKELCSIHAPSGNEEPLKDFILEYIRSNAGSWSYQPVIYADNDLQDCIVLVFGNPRTAVFAHMDSIGFTVSYNNHLHPIGSPSAKEGYRLVGKDSNGDIEGVLKIVDEEWMLETDRLIDRGTEVTFKPDFREEGDFILTPYLDDRLGVWTALELAKTLEHGIIAFTCWEEHGGGSVAYLARWIYETFHVKQSLICDITWVTEGVEAGKGVAISMRDRMIPRKKYVNRIIELARQTDIPFQLEVEGAGASDGRELQLSPYPWDWCFIGAPEKDAHTPNECVHKKDIESMVGLYKYLMEKL | soluble
10 | MGSDKIHHHHHHENLYFQGMSKVFVNISLSLDGFMAPEGMDMAHFSDPTYKNWGAKWGALMAWALSQQYLREKLKLGTGGETGPVNDMVRHTFERTGAHIMGKRMFEGGERGWPEEAPFHTPVYVLTHERRNPWVRPGGTTFYFVNDGPEQALALAREAAGERDIRISGGANVIQQYLNLGLVDELEIALIPVIFGGGRRLFENLHEPLPQFRIDRVLASPTATHLRYVRL | soluble
11 | MGSDKIHHHHHHERNKTLYWGGALWSPPSNWNPFTPWNAVAGTIGLVYEPLFLYDPLNDKFEPWLAEKGEWVSNNEYVLTLRKGLRWQDGVPLTADDVVFTFEIAKKYTGISYSPVWNWLGRIERVDERTLKFVFSDPRYQEWKQMLINTPIVPKHIWENKTEEEVLQAANENPVGSGPYYVESWADDRCVFKKNGNWWGIRELGYDPKPERIVELRVLSNNVAVGMLMKGELDWSNFFLPGVPVLKKAYGIVTWYENAPYMLPANTAGIYINVNKYPLSIPEFRRAMAYAINPEKIVTRAYENMVTAANPAGILPLPGYMKYYPKEVVDKYGFKYDPEMAKKILDELGFKDVNKDGFREDPNGKPFKLTIECPYGWTDWMVSIQSIAEDLVKVGINVEPKYPDYSKYADDLYGGKFDLILNNFTTGVSATIWSYFNGVFYPDAVESEYSYSGNFGKYANPEVETLLDELNRSNDDAKIKEVVAKLSEILLKDLPFIPLWYNGAWFQASEAVWTNWPTEKNPYAVPIGWNGWWQLTGIKTLFGIEAK | soluble
12 | MGSDKIHHHHHHETENVNCGQVLAGDTAYLKTVTGEYRIKIAENESLNMSCEAVMDRILSRDHVLRPLENGVAFARVVYMDYELIEKHVEMSYHPQNSFCFAIDKKAAKEFKERMQAMASCLPNVLLLPGRFFKNPIHDLSVDSHGHNTNLAHYNCLRALINKPGWNYAILLQNHDLITKSVYELEKIFNWLGGANDVAIRPELGRLDKKHFKWDPMSLKLFRNESEIDPVILNTTLKFAKGAVQSSLSRAAVDWMTRTVDLTTFIDQWNHGTYGVDEQFTQAFQISDFLGMPGHFTDKCIKKGIITEGITRFAQWTHGDQSKCASKKSRHGICIMGIEHLSMMAKSEHLMFNKVLPLFDYSIIECTAE | not soluble
13 | MGSDKIHHHHHHGDDDDSSSSGNWQDLSKTYEGKSVNLVMGEVTVPVDGKSVVIAASSAEKASVTLNNIIPENKSVAIDAALKEADGTYTFTGESTVGDCVVSVNGTVKGGVASVVYTRKLTSSIVGNWSLKVGVEAIYANIVTGNSTIDDLVRMIKPAISNLIWGKVSAVNVNLPEDGIFDVSWRPIGASEDKGIGEITKMASIQYCVVDGKFMVAVDKNYVTVLTTLLQQAAGDKLEAAGISIDEIMKLLVDLGGYYGLPLNMKVDGSEATFYADKDLIVPVLTMIAPILKPMVPENYQQMVDMVLQLLPNAKTLEFGLNFTK | not soluble
14 | MGSDKIHHHHHHGETIDLGHDTTLDYSVTASYGAAVRTGTQSNTLLSPANINGDDGNRNFKRGDMTANRVSLLGEAHVKHDAFGALVRGSVFYDWAYSGTNSNNAPGTVNHSGPFNEFTGSARDYHESRAQLLDAYVYGAVPIESTQLSFKLGNQVVAWGESLFFANIAGAQGPADATKAFVPGAEVKDILLPVPQASVQWQVTPAFSLMGYYQFTFKPNQLFAPGSYFSTSDIVGPGAEFIIGPGFRIPRGPDISPSDWGQWGIGGRFRVFEDTEIGLYQLRYHDKNPSVVTSLFPTLQYQQKYFGGINLTGASFSTQLAGANVAGEVSYKDGVPMLVDVAGSPTASRGKALQAQLSAIYAIGPTFLANSQTLLGEIAYLHVIGVDSVMGFDKLSNTRNSAAFQVGWSLTYNNVFDGWDLTVPLTYAQQFSGNAAVAGAFGTLMGYGDKRASVGLTFKYLNNLELNLTYAAFIGGASIANRPLADRDYVAFNAKYSF | not soluble
15 | MGSDKIHHHHHHHEEADYSQEAHHLVEFGTLLQDDPNVIVPKYHADLSTRDVLAMDFVPSHPIDDLEAADQSERDRVATQLIALMMREVFSFQRVQSDPNFANFRWQPDTGRVVLLDFGATRVLSDNLVNAARQVLRPALDNDLTALANALRELGLLDDALPDQARKTILEMVALANEPMMDPDGFDFGNTSLVTELRTSGMALGQDRSIQSIPPIEVLYLQRKAAGLFLLATRLRARVDLRSLFKS | not soluble
16 | MGSDKIHHHHHHIRPIQRGKANAKVEFGAKIDCSLSEGVVDIERFDFTAFSEGQDFTETLDHYYDLHGHYPDEVLADTLYRNRENLKLCKDLGIRVCGPKLGRHPKNVDAAKRREDTDAENRRGTIERRFAFMKGTLGLDLVNTRTAESLAVKIDAAIVLSNALTLLRVFAIPILILAKFEGEAYRIRYKFTTRVEDMLA | not soluble
17 | MGSDKIHHHHHHKTLAANAVFATAFVKRDGSFGAAILSEAGKVLHAIDLPDRGHDVTFDPISKRSVVFARQPGTFAVVFDHSGRDAPQTVASISGRHFFGHGVFSPDGALLYATENDFDNAAGVIGIYDARAKFSRVGEFPTYGMGPHELLLLGDGRTMAVANGGIETHPDYGRAELNIATMKPSYVLIDRVTGDLIEKHELPASLHQLSIRHMDTDPSGTVWFGCQYRGPGTDRPLLVGRAVRGKELQLLDMPQDVLSGFRNYIGSVAANLSAGSVAVSSPEGNSLVVIDAASGRVVSSSALVEVCGLAPDGSGFIATTGAGEIIEGSGATRSEPDYVWDNHMLRIERA | not soluble
